The series has as its target YY1;FOXP2 FHD (human?;human?, UniProt P25490;O15409 1-414;504-594, |). As to the kind of experiment: EMSA; FOXP2 FHD 2.5-10 uM added; large complex more intense and slightly shifted; simultaneous binding suggested; Anisotropy: 10 mM HEPES pH 7.5, 100 mM NaCl, 20 C; EMSA: 0.5 uM DNA, 20% (v/v) of binding buffer (10 mM HEPES pH 7.5, 1 mM MgCl2, 100 mM KCl, 10% glycerol, 0.1). Particulars: protein: recombinant;recombinant; tags: N-terminal His6;His6 removed with thrombin. A general note: A gel shift assay detects complexes by their altered migration in electrophoresis.

YY1;FOXP2 FHD, sequence (P25490 whole entry, chain 1 of 2): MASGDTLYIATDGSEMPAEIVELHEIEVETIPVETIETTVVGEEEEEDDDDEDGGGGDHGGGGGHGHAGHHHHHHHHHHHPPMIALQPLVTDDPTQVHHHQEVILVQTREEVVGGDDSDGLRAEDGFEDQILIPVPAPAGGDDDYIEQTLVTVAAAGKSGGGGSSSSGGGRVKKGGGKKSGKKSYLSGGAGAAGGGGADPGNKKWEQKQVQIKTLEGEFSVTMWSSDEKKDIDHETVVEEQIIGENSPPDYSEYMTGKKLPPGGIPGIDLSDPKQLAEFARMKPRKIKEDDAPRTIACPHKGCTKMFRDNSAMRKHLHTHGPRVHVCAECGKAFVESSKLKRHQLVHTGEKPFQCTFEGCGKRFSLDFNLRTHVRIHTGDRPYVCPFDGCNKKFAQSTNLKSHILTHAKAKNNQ
YY1;FOXP2 FHD, sequence (O15409 504-594, chain 2 of 2): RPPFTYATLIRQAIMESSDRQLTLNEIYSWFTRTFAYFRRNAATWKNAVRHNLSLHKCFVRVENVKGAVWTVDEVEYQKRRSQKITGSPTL

B1: AAV P5 DNA (dsDNA)
DNA 1: AGGGTCTCCATTTTGAAGCG
DNA 2: CGCTTCAAAATGGAGACCCT
With B1, the binding result was “binds”.
